Measurements reported in patent US20110311522A1.

Key:
[1] = biological target: hemagglutinin (HA) of H5N1 virus strain A1 (H5N1 avian influenza virus, strain A1); assay: cell-based or functional assay
[2] = biological target: hemagglutinin (HA) of H5N1 virus strain GD1.1 (H5N1 avian influenza virus, strain GD1.1); assay: cell-based or functional assay
[3] = biological target: hemagglutinin (HA) of H5N1 virus strain E2 (H5N1 avian influenza virus, strain E2); assay: cell-based or functional assay
[4] = biological target: hemagglutinin (HA) of H5N1 virus strain F2 (H5N1 avian influenza virus, strain F2); assay: cell-based or functional assay
[5] = biological target: hemagglutinin (HA) of H5N1 virus strain F4 (H5N1 avian influenza virus, strain F4); assay: cell-based or functional assay
[6] = biological target: hemagglutinin (HA) of H5N1 virus strain H2 (H5N1 avian influenza virus, strain H2); assay: cell-based or functional assay
[7] = biological target: hemagglutinin (HA) of H5N1 virus strain IDN6.1 (H5N1 avian influenza virus, strain IDN6.1); assay: cell-based or functional assay
[8] = biological target: hemagglutinin (HA) of H5N1 virus strain C2 (H5N1 avian influenza virus, strain C2); assay: cell-based or functional assay
[9] = biological target: hemagglutinin (HA) of H5N1 virus strain B6 (H5N1 avian influenza virus, strain B6); assay: cell-based or functional assay
[10] = biological target: hemagglutinin (HA) of H5N1 virus strain GD4.1 (H5N1 avian influenza virus, strain GD4.1); assay: cell-based or functional assay
[11] = biological target: hemagglutinin (HA) of H5N1 virus strain G1 (H5N1 avian influenza virus, strain G1); assay: cell-based or functional assay
[12] = biological target: hemagglutinin (HA) of H5N1 virus strain B7 (H5N1 avian influenza virus, strain B7); assay: cell-based or functional assay
[13] = biological target: hemagglutinin (HA) of H5N1 virus strain D2 (H5N1 avian influenza virus, strain D2); assay: cell-based or functional assay
[14] = biological target: hemagglutinin (HA) of H5N1 virus strain Mixed1.1 (H5N1 avian influenza virus, strain Mixed1.1); assay: cell-based or functional assay
[15] = biological target: hemagglutinin (HA) of H5N1 virus strain A6 (H5N1 avian influenza virus, strain A6); assay: cell-based or functional assay
[16] = biological target: hemagglutinin (HA) of H5N1 virus strain IDN1.1 (H5N1 avian influenza virus, strain IDN1.1); assay: cell-based or functional assay
[17] = biological target: hemagglutinin (HA) of H5N1 virus strain B1 (H5N1 avian influenza virus, strain B1); assay: cell-based or functional assay
[18] = biological target: hemagglutinin (HA) of H5N1 virus strain IDN8.1 (H5N1 avian influenza virus, strain IDN8.1); assay: cell-based or functional assay
[19] = biological target: hemagglutinin (HA) of H5N1 virus strain C3 (H5N1 avian influenza virus, strain C3); assay: cell-based or functional assay
[20] = biological target: hemagglutinin (HA) of H5N1 virus strain E1 (H5N1 avian influenza virus, strain E1); assay: cell-based or functional assay
[21] = biological target: hemagglutinin (HA) of H5N1 virus strain GD3.1 (H5N1 avian influenza virus, strain GD3.1); assay: cell-based or functional assay
[22] = biological target: H5 virus strain (fifteen strains of H5N1 viruses); assay: cell-based or functional assay
[23] = biological target: hemagglutinin (HA) of H5N1 virus strain HN3.1 (H5N1 avian influenza virus, strain HN3.1); assay: cell-based or functional assay
[24] = biological target: hemagglutinin (HA) of H5N1 virus strain A3 (H5N1 avian influenza virus, strain A3); assay: cell-based or functional assay
[25] = biological target: hemagglutinin (HA) of H5N1 virus strain A8 (H5N1 avian influenza virus, strain A8); assay: cell-based or functional assay
[26] = biological target: hemagglutinin (HA) of H5N1 virus strain A2 (H5N1 avian influenza virus, strain A2); assay: cell-based or functional assay
[27] = biological target: hemagglutinin (HA) of H5N1 virus strain B4 (H5N1 avian influenza virus, strain B4); assay: cell-based or functional assay
[28] = biological target: hemagglutinin (HA) of H5N1 virus strain A7 (H5N1 avian influenza virus, strain A7); assay: cell-based or functional assay
[29] = biological target: hemagglutinin (HA) of H5N1 virus strain FJ1.5 (H5N1 avian influenza virus, strain FJ1.5); assay: cell-based or functional assay
[30] = biological target: hemagglutinin (HA) of H5N1 virus strain B8 (H5N1 avian influenza virus, strain B8); assay: cell-based or functional assay
[31] = biological target: hemagglutinin (HA) of H5N1 virus strain IDN3.1 (H5N1 avian influenza virus, strain IDN3.1); assay: cell-based or functional assay
[32] = biological target: hemagglutinin (HA) of H5N1 virus strain B3 (H5N1 avian influenza virus, strain B3); assay: cell-based or functional assay
[33] = biological target: hemagglutinin (HA) of H5N1 virus strain VNM2-2.1 (H5N1 avian influenza virus, strain VNM2-2.1); assay: cell-based or functional assay
[34] = biological target: hemagglutinin (HA) of H5N1 virus strain VTM1.1 (H5N1 avian influenza virus, strain VTM1.1); assay: cell-based or functional assay
[35] = biological target: hemagglutinin (HA) of H5N1 virus strain VTM4.1 (H5N1 avian influenza virus, strain VTM4.1); assay: cell-based or functional assay
[36] = biological target: hemagglutinin (HA) of H5N1 virus strain F3 (H5N1 avian influenza virus, strain F3); assay: cell-based or functional assay
[37] = biological target: hemagglutinin (HA) of H5N1 virus strain YN2.1 (H5N1 avian influenza virus, strain YN2.1); assay: cell-based or functional assay
[38] = biological target: 14 strains of non-H5 viruses (H1~H13, Chicken NDV); assay: cell-based or functional assay
[39] = biological target: hemagglutinin (HA) of H5N1 virus strain QH1.1 (H5N1 avian influenza virus, strain QH1.1); assay: cell-based or functional assay
[40] = biological target: hemagglutinin (HA) of H5N1 virus strain D3 (H5N1 avian influenza virus, strain D3); assay: cell-based or functional assay
[41] = biological target: hemagglutinin (HA) of H5N1 virus strain D1 (H5N1 avian influenza virus, strain D1); assay: cell-based or functional assay
[42] = biological target: phage peptides (screening product screened with 8G9 from twelve-peptide library)

B1: monoclonal antibody 13D4 (antibody, V domains shown)
VH: QVQLQQSGAELMKPGASVKISCKATGYTFSGHWIEWVKQRPGHGLEWIGEILPGSGNIHYNEKFKGKATFAADTSSNTAYMQLSSLTSEDSAVYYCARLGTTAVERDWYFDVWGQGTTVTESL
VL: DIVMTQSQKFMSASVGDRVSVTCKASQNVGTHLAWYQQKPGQSPKALIYSASYRYSGVPDRFTGSGSGTDFTLTISNVQSGDLADYFCQQYNNFPLTFGAGTKLEIKR
HI titer (hemagglutinin inhibition assay) (n (HI titer = 2^n)) [1]: > 8 | Hamaglutinin inhibition titer [2]: 6400 titer | Neutralization titer [2]: 12800 titer | HI titer (hemagglutinin inhibition assay) (n (HI titer = 2^n)) [3]: 6 | HI titer (hemagglutinin inhibition assay) (n (HI titer = 2^n)) [4]: 5 | HI titer (hemagglutinin inhibition assay) (n (HI titer = 2^n)) [5]: 1 | HI titer (hemagglutinin inhibition assay) (n (HI titer = 2^n)) [6]: 3 | Hamaglutinin inhibition titer [7]: 12800 titer | Neutralization titer [7]: 12800 titer | HI titer (hemagglutinin inhibition assay) (n (HI titer = 2^n)) [8]: 3 | HI titer (hemagglutinin inhibition assay) (n (HI titer = 2^n)) [9]: > 8 | Hamaglutinin inhibition titer [10]: 12800 titer | Neutralization titer [10]: 12800 titer | HI titer (hemagglutinin inhibition assay) (n (HI titer = 2^n)) [11]: 4 | HI titer (hemagglutinin inhibition assay) (n (HI titer = 2^n)) [12]: 7 | HI titer (hemagglutinin inhibition assay) (n (HI titer = 2^n)) [13]: 5 | Hamaglutinin inhibition titer [14]: 6400 titer | Neutralization titer [14]: 12800 titer | HI titer (hemagglutinin inhibition assay) (n (HI titer = 2^n)) [15]: 3 | Hamaglutinin inhibition titer [16]: 12800 titer | Neutralization titer [16]: 12800 titer | HI titer (hemagglutinin inhibition assay) (n (HI titer = 2^n)) [17]: > 8 | Hamaglutinin inhibition titer [18]: 12800 titer | Neutralization titer [18]: 12800 titer | HI titer (hemagglutinin inhibition assay) (n (HI titer = 2^n)) [19]: 4 | HI titer (hemagglutinin inhibition assay) (n (HI titer = 2^n)) [20]: 7 | Hamaglutinin inhibition titer [21]: 12800 titer | Neutralization titer [21]: 12800 titer | Positive number/total virus number, hemagglutination inhibition assay (of 15 virus strains positive) [22]: 15 | Hamaglutinin inhibition titer [23]: 12800 titer | Neutralization titer [23]: 12800 titer | HI titer (hemagglutinin inhibition assay) (n (HI titer = 2^n)) [24]: 6 | HI titer (hemagglutinin inhibition assay) (n (HI titer = 2^n)) [25]: 5 | HI titer (hemagglutinin inhibition assay) (n (HI titer = 2^n)) [26]: 7 | HI titer (hemagglutinin inhibition assay) (n (HI titer = 2^n)) [27]: 5 | HI titer (hemagglutinin inhibition assay) (n (HI titer = 2^n)) [28]: 4 | Hamaglutinin inhibition titer [29]: 12800 titer | Neutralization titer [29]: 12800 titer | HI titer (hemagglutinin inhibition assay) (n (HI titer = 2^n)) [30]: > 8 | Hamaglutinin inhibition titer [31]: 12800 titer | Neutralization titer [31]: 12800 titer | HI titer (hemagglutinin inhibition assay) (n (HI titer = 2^n)) [32]: 3 | Hamaglutinin inhibition titer [33]: 12800 titer | Neutralization titer [33]: 12800 titer | Hamaglutinin inhibition titer [34]: 6400 titer | Neutralization titer [34]: 12800 titer | Hamaglutinin inhibition titer [35]: 12800 titer | Neutralization titer [35]: 12800 titer | HI titer (hemagglutinin inhibition assay) (n (HI titer = 2^n)) [36]: > 8 | Hamaglutinin inhibition titer [37]: 12800 titer | Neutralization titer [37]: 12800 titer | Positive number/total virus number, hemagglutination inhibition assay (of 14 virus strains positive) [38]: 0 | Hamaglutinin inhibition titer [39]: 12800 titer | Neutralization titer [39]: 12800 titer | HI titer (hemagglutinin inhibition assay) (n (HI titer = 2^n)) [40]: 6 | HI titer (hemagglutinin inhibition assay) (n (HI titer = 2^n)) [41]: 5

B2: monoclonal antibody 8G9 (antibody, V domains shown)
VH: QVQLQQPGVELVRPGASVKLSCKASGYTFTSFWMNWVKQRPDQGLEWIGRIDPYDSETHYNQKFKDKAILTVDKSSSTAYMQLSSLTSEDSAVYYCGRGIATLMVLPDYWGQGTSVTVSS
VL: DILMTQSPSSMSVSLGDTVSITCHASQDISSNMGWLQQKPGKSLKGLIYHGTNLEDGVPSRFSGSGSGPDYSLTISSLESEDFADYYCVQYIQFPWTFGGGTKLEIKR
Hamaglutinin inhibition titer [2]: 12800 titer | Neutralization titer [2]: 12800 titer | Hamaglutinin inhibition titer [7]: 12800 titer | Neutralization titer [7]: 12800 titer | Hamaglutinin inhibition titer [10]: 12800 titer | Neutralization titer [10]: 12800 titer | Hamaglutinin inhibition titer [14]: 12800 titer | Neutralization titer [14]: 12800 titer | Hamaglutinin inhibition titer [16]: 12800 titer | Neutralization titer [16]: 12800 titer | Hamaglutinin inhibition titer [18]: 12800 titer | Neutralization titer [18]: 12800 titer | Hamaglutinin inhibition titer [21]: 12800 titer | Neutralization titer [21]: 12800 titer | Positive number/total virus number, hemagglutination inhibition assay (of 15 virus strains positive) [22]: 15 | Hamaglutinin inhibition titer [23]: 12800 titer | Neutralization titer [23]: 12800 titer | Hamaglutinin inhibition titer [29]: 12800 titer | Neutralization titer [29]: 12800 titer | Hamaglutinin inhibition titer [31]: 12800 titer | Neutralization titer [31]: 12800 titer | Hamaglutinin inhibition titer [33]: 12800 titer | Neutralization titer [33]: 12800 titer | Hamaglutinin inhibition titer [34]: 12800 titer | Neutralization titer [34]: 12800 titer | Hamaglutinin inhibition titer [35]: 12800 titer | Neutralization titer [35]: 12800 titer | Hamaglutinin inhibition titer [37]: 12800 titer | Neutralization titer [37]: 12800 titer | Positive number/total virus number, hemagglutination inhibition assay (of 14 virus strains positive) [38]: 0 | Hamaglutinin inhibition titer [39]: 12800 titer | Neutralization titer [39]: 12800 titer | OD value relative to that of the control antibodies [42]: > 3 fold
